In patent US20230054718A1 (HIFIBIO HK, published 2023):
Several values for one entry are separate records, joined by “and”; a condition that tells them apart may be missing. Equal entries are not always repeated. One block for each binder: values may come before it.

Legend:
[1] = target: T1, recombinant human Galectin-9 (human, UniProt O00182-2 1-323, limits assumed); test: binding to recombinant human Gal-9, OD read-out over antibody concentration (nM); table under the curves
T1 construct: also called hGal9M; human Gal9
T1 sequence (O00182 other isoform, or with tags, fused parts or gaps limits assumed): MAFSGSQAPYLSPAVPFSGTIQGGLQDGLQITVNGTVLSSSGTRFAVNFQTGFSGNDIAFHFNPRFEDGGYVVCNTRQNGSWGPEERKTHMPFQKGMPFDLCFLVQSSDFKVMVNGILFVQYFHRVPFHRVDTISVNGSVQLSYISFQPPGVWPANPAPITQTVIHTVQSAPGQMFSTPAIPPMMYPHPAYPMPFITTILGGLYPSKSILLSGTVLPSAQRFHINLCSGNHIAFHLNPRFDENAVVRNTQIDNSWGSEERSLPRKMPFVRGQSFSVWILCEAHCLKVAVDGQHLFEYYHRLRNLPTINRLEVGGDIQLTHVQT

[2] = target: T2, Gal9 (Galectin-9) as used in Examples 3 to 5 (Homo sapiens (Human), UniProt O00182 1-323); test: CD44 blocking Assay: binding (%) of Gal9 to CD44 over antibody concentration; R2 printed 0,9790; no unit in the table, nM from the axis 'Antibody [nM]'
T2 sequence (O00182 other isoform, or with tags, fused parts or gaps limits assumed): as above

[3] = target: T2, Gal9 (Galectin-9) as used in Examples 3 …; test: Tim3 blocking Assay: binding (%) of Gal9 to TIM3 over antibody concentration; R2 printed 0,9956; no unit in the table, nM from the axis 'Antibody [nM]'
[4] = target: T2, Gal9 (Galectin-9) as used in Examples 3 …; test: Tim3 blocking Assay: binding (%) of Gal9 to TIM3 over antibody concentration; R2 printed 0,9756; no unit in the table, nM from the axis 'Antibody [nM]'
[5] = target: T3, recombinant mouse Galectin-9 (mouse, UniProt O08573-2 1-322, limits assumed); test: binding to recombinant mouse Gal-9, OD read-out over antibody concentration (nM); table under the curves
T3 construct: also called mGal9M; mouse Gal9
T3 sequence (O08573 other isoform, or with tags, fused parts or gaps limits assumed): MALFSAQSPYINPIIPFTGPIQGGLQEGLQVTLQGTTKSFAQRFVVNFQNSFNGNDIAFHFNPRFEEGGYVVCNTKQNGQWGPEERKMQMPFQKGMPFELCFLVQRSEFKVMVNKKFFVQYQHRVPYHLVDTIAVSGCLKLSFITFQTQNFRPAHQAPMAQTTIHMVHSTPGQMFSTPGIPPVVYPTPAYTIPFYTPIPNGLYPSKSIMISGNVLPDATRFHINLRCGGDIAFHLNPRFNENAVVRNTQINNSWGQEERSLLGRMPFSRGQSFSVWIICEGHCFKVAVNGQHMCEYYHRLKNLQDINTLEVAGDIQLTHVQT

[6] = target: T3, recombinant mouse Galectin-9; test: BLI (Octet)
Protocol: (§1) Antibody binding affinity was measured using the commercially available Octet system from ForteBio (Creative Biolabs). According to the Creative Biolabs description, the Octet platform is based on bio-layer interferometry (BLI) technology that utilizes a whole set of system including instruments, biosensors, reagents and assay kits to support the evaluation of biomolecular interactions in 96- or 384-well microplates. Octet system uses Dip-and-Read assay mode to avoid the need of microfluidics, and enables the real-time, label-free analysis of affinity as well as kinetics. There are three biosensor-based assay orientations that can be used to explore antibody interaction: tandem blocking, premix blocking and classical sandwich. Compared to Biacore, Octet's dip-and-read assay allows longer analyte-binding steps and […] the rebinding of analyte to the ligand-coated sensors. Meanwhile, faster association time consumes less sample, which saves your precious proteins.

[7] = target: T1, recombinant human Galectin-9; test: BLI (Octet)
Protocol: as §1

[8] = target: T2, Gal9 (Galectin-9) as used in Examples 3 …; test: CD44 blocking Assay: binding (%) of Gal9 to CD44 over antibody concentration; ambiguous fit marked '~', R2 printed 0,9720; no unit in the table, nM from the axis 'Antibody [nM]'
[9] = target: T2, Gal9 (Galectin-9) as used in Examples 3 …; test: Tim3 blocking Assay: binding (%) of Gal9 to TIM3 over antibody concentration; R2 printed 0,9960; no unit in the table, nM from the axis 'Antibody [nM]'
[10] = target: T2, Gal9 (Galectin-9) as used in Examples 3 …; test: CD44 blocking Assay: binding (%) of Gal9 to CD44 over antibody concentration; ambiguous fit marked '~', R2 printed 0,9183; no unit in the table, nM from the axis 'Antibody [nM]'
[11] = target: T2, Gal9 (Galectin-9) as used in Examples 3 …; test: Tim3 blocking Assay: binding (%) of Gal9 to TIM3 over antibody concentration; ambiguous fit marked '~', R2 printed 0,9819; no unit in the table, nM from the axis 'Antibody [nM]'
[12] = target: T2, Gal9 (Galectin-9) as used in Examples 3 …; test: Tim3 blocking Assay: binding (%) of Gal9 to TIM3 over antibody concentration; ambiguous fit marked '~', R2 printed 0,8826; no unit in the table, nM from the axis 'Antibody [nM]'
[13] = target: T2, Gal9 (Galectin-9) as used in Examples 3 …; test: CD44 blocking Assay: binding (%) of Gal9 to CD44 over antibody concentration; very poor fit, R2 printed 0,07344; no unit in the table, nM from the axis 'Antibody [nM]'
[14] = target: T2, Gal9 (Galectin-9) as used in Examples 3 …; test: CD44 blocking Assay: binding (%) of Gal9 to CD44 over antibody concentration; ambiguous fit marked '~', R2 printed 0,7386; no unit in the table, nM from the axis 'Antibody [nM]'
[15] = target: T2, Gal9 (Galectin-9) as used in Examples 3 …; test: Tim3 blocking Assay: binding (%) of Gal9 to TIM3 over antibody concentration; ambiguous fit marked '~', R2 printed 0,8078; no unit in the table, nM from the axis 'Antibody [nM]'

EC50 [1]: 0.144 nM
IC50 [2]: 48.7 nM
IC50 [3]: 37.1 nM
B1: HFB9-2hz14-hG1AA (antibody, human IgG1, V domains shown)
VH: EVQLVQSGAEVKKPGESLKISCKGSGYTFTEYTIHWVRQMPGKGLEWMGWFYPGSGSTEYSPSFQGQVTISADKSISTAYLQWSSLKASDTAMYYCERHGGYDGFDYWGQGTTVTVSS
VL: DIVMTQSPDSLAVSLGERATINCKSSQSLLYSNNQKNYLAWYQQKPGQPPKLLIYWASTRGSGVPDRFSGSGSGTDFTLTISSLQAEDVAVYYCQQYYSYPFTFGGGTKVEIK
notes: Humanized variant of HFB9-2; also called 2h14

EC50 [1]: 0.128 nM
IC50 [4]: 51.4 nM
EC50 [5]: 0.496 nM
B2: HFB9-2hz13-hG1AA (antibody, human IgG1, V domains shown)
VH: QVQLVQSGAEVKKPGASVKVSCKASGYTFTEYTIHWVRQAPGQGLEWMGWFYPGSGSTEYAQKFQGRVTMTADTSTSTVYMELSSLRSEDTAVYYCERHGGYDGFDYWGQGTTVTVSS
VL: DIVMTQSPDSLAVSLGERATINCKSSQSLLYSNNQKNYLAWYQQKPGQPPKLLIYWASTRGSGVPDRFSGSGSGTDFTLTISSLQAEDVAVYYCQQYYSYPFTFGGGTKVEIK
notes: Humanized variant of HFB9-2

EC50 [1]: 0.57 nM
B3: HFB9-2hz12-hG1AA (antibody, V domains shown)
VH: QVQLVQSGAEVKKPGSSVKVSCKASGYTFTEYTIHWVRQAPGQGLEWMGWFYPGSGSAEYAQKFQGRVTITADESTSTAYMELSSLRSEDTAVYYCERHGGYDGFDYWGQGTTVTVSS
VL: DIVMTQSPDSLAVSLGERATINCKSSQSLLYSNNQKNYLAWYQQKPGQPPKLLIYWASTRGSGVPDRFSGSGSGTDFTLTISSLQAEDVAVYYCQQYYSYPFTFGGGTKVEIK
notes: humanized variant of HFB9-2

EC50 [1]: 0.117 nM
koff [6]: 0.000462 s⁻¹ and 0.000606 s⁻¹
kon [6]: 402000 M⁻¹ s⁻¹ and 166000 M⁻¹ s⁻¹
Kd [7]: 4.84 nM and 1.96 nM
koff [7]: 0.000352 s⁻¹ and 0.000179 s⁻¹
kon [7]: 72800 M⁻¹ s⁻¹ and 91400 M⁻¹ s⁻¹
EC50 [5]: 0.533 nM
IC50 [8]: ~39.6 nM
IC50 [9]: 25.3 nM
B4: HFB9-2hz11-hG1AA (antibody, IgG1, V domains shown)
VH: QVQLVQSGAEVKKPGASVKVSCKASGYTFTEYTIHWVRQAPGQGLEWMGWFYPGSGSTEYAQKFQGRVTMTADTSISTAYMELSRLRSDDTAVYFCERHGGYDGFDYWGQGTTVTVSS
VL: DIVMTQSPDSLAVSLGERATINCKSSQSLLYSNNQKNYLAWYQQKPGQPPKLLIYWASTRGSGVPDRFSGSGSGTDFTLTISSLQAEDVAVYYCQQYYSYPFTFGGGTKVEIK
notes: Humanized variant of HFB9-2; also called HFB9-2hz11-hG1AA MF20191024

EC50 [1]: 0.15 nM
EC50 [5]: 0.828 nM
IC50 [10]: ~63.1 nM
IC50 [11]: ~59.8 nM
B5: HFB9-1hz2-hG1AA (antibody, human IgG1, V domains shown)
VH: QVQLVQSGAEVKKPGSSVKVSCKASGYTFTDYTIHWVRQAPGQGLEWMGWFYPGSHSIKYAQKFQGRVTITADKSTSTAYMELSSLRSEDTAVYFCTRHGGYDGFDYWGQGTLVTVSS
VL: DIVMTQSPDSLAVSLGERATINCKSSQSLFYSTNQKNYLAWYQQKPGQPPKLLIYWASTRESGVPDRFSGSGSGTDFTLTISSLQAEDVAVYYCQQYYYFPYTFGQGTKLEIK
notes: Humanized variant of HFB9-1

EC50 [1]: 1.84 nM
B6: HFB9-1hz4-hG1AA (antibody, V domains shown)
VH: QVQLVQSGAEVKKPGSSVKVSCKASGYTFTDYTIHWVRQAPGQGLEWMGWFYPGSHSIKYAQKFQGRVTITADKSTSTAYMELSSLRSEDTAVYYCARHGGYDGFDYWGQGTLVTVSS
VL: DIVMTQSPDSLAVSLGERATINCKSSQSLFYSTNQKNYLAWYQQKPGQPPKLLIYWASTRESGVPDRFSGSGSGTDFTLTISSLQAEDVAVYYCQQYYYFPYTFGQGTKLEIK
notes: humanized variant of HFB9-1

EC50 [1]: 0.142 nM
IC50 [12]: ~183 nM
EC50 [5]: 0.98 nM
IC50 [13]: 0.0616 nM
B7: HFB9-1hz3-hG1AA (antibody, human IgG1, V domains shown)
VH: QVQLVQSGAEVKKPGSSVKVSCKASGYTFTDYTIHWVRQAPGQGLEWMGWFYPGSHSIKYAQKFQGRVTITADKSTSTAYMELSSLRSEDTAVYYCTRHGGYDGFDYWGQGTLVTVSS
VL: DIVMTQSPDSLAVSLGERATINCKSSQSLFYSTNQKNYLAWYQQKPGQPPKLLIYWASTRESGVPDRFSGSGSGTDFTLTISSLQAEDVAVYYCQQYYYFPYTFGQGTKLEIK
notes: Humanized variant of HFB9-1

EC50 [1]: 0.153 nM
IC50 [14]: ~255 nM
IC50 [15]: ~52.1 nM
B8: HFB9-1hz1-hG1AA (antibody, human IgG1, V domains shown)
VH: QVQLVQSGAEVKKPGASVKVSCKASGYTFTDYTIHWVRQAPGQGLEWMGWFYPGSHSIKYAQKFQGRVTMTADTSISTAYMELSRLRSDDTAVYFCTRHGGYDGFDYWGQGTLVTVSS
VL: DIVMTQSPDSLAVSLGERATINCKSSQSLFYSTNQKNYLAWYQQKPGQPPKLLIYWASTRESGVPDRFSGSGSGTDFTLTISSLQAEDVAVYYCQQYYYFPYTFGQGTKLEIK
notes: Humanized variant of HFB9-1
